Measured values published in patent US20170128564A1, “P[…] FROM gp41, A VACCINE COMPOSITION COMPRISING SAID POLYPEPTIDE, AND USES FOR TREATING AN INFECTION BY AN HIV VIRUS IN AN INDIVIDUAL” (INSTITUT NATIONAL DE LA SANTE ET DE LA RECHERCHE MEDICALE …, priority 2003, published 2017).
No end group written: not given here.

Assays:
CD4+ T cells = test: NK cytotoxicity 51Cr-release assay, treated CD4+ T cells as targets of activated autologous purified NK cells; type: cell-based, human
Experimental: NK lines were generated from PBMC, and then purified using the StemSep cell separation system and the NK cell enrichment antibody cocktail (StemCell technologies). NK purified cells were cultured in MyeloCult H5100 medium (StemCell technologies) supplemented with 100 units rhlL-2 (Boheringer). The purity of these preparations was evaluated by flow cytometry after staining with anti-CD3 (BD), anti-CD56 (BD), anti-NKp44, and anti-NKp46 mAbs.
The cytololytic activity was assayed in 4-h ^51Cr-release assay as previously described. Briefly, the target cells were labeled for 2-h at 37° C. with 100 μCi per 10^6 cells Na^51Cr (Amersham), and washed twice with culture medium. The target cells were then distributed in round-bottomed 96-well microtiter plates (4×10^3 cells per well), and the effector cells were added at several E/T ratio. The plates were incubated 4-h at 37° C. The supernatant were then collected and ^51Cr-release was measured in a gamma counted. In experiments in which Abs were included, these were added to final concentration of 20 μg/ml. The relative specific ^51Cr-release was calculated as previously described. Values for spontaneous ^51Cr-release, which are deducted in the calculation, were between 10 and 20% of the total incorporated radioactivity. The results are presented after subtraction of the nonspecific lysis obtained with control targets. […]

[1] = test system: NKp44L expression on purified CD4+ T cells; type: cell-based, human; settings: preliminary experiment with the 6-mers peptide
NKp44L = molecular target: T1, NKp44L (Homo sapiens, UniProt Q8IZD2); test: Staining of U2 cells with #7.1 mAb, flow cytometry, and competition with NCR-Ig fusion proteins; type: binding; settings: HIV-1-infected U2 cells previously stained with fusion protein (FIG. 8C)
T1 construct: endogenous in cells; host or cells: U2 cells, uninfected or chronically infected with HIV-1 Sf2
T1 sequence (Q8IZD2 1-1168 isoform Q8IZD2-8 K496E/T516A): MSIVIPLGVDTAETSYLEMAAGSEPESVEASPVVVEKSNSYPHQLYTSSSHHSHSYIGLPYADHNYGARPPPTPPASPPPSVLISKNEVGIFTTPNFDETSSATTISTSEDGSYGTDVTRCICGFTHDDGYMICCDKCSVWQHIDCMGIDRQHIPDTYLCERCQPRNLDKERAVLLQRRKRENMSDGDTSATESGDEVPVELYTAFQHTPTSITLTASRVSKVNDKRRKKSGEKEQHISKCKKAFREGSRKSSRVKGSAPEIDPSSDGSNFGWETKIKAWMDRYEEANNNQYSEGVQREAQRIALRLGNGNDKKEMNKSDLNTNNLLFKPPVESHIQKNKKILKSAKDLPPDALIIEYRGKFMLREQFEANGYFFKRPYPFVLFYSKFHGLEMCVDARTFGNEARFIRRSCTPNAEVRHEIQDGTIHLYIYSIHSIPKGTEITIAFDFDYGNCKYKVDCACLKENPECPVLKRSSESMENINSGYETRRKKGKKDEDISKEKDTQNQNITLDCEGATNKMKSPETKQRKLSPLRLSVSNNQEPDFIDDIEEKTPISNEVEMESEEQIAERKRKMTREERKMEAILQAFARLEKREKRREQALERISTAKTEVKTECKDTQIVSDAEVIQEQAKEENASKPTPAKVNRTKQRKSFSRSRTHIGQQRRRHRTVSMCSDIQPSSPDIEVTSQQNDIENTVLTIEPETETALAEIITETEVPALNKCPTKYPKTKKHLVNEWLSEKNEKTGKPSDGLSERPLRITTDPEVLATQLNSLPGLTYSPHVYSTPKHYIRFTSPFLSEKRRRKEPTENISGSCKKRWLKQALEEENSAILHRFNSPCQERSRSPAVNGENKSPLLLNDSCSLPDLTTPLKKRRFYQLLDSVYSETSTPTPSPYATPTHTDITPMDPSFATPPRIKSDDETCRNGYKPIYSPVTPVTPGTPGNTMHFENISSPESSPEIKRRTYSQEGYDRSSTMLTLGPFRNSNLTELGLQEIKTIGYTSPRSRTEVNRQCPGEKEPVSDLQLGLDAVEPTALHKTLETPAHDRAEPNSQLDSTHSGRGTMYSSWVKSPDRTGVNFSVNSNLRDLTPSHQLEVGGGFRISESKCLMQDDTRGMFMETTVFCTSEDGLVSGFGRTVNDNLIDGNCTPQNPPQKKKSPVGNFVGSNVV
Experimental: 8B) Cell surface expression of NKp44L detected with #7.1 mAb. Uninfected (UI) and HIV-1-infected (Sf2) U2 cells were incubated with 1 μg/ml of #7.1 mAb (black line) or with the IgM isotype control (dotted line) and analyzed by flow cytometry.
8C) #7.1 mAb inhibits NKp44-Ig binding. HIV-1-infected U2 cells that had previously been stained with either […] of NKp44-Ig fusion protein (lower panel; black line) or control NKp46-Ig fusion protein (upper panel; black line) were incubated with #7.1 mAb (gray line) or IgM isotype control (dotted line) for 1!h at 4° C. and washed twice in 1% PBS-BSA. The cells were then analyzed by flow cytometry. Percentage of cells expressing NKp44L, after NCR-Ig incubation, is noted.
Anti-NKp44 (44/8; IgG1) and anti-NKp44L mAb (#7.1; IgM) were obtained from 5-weekold BalB/c mice immunized with the ClonaCell-HY hybridoma cloning kit, according to the manufacturer's instructions (StemCell Technologies Inc.). The anti-mouse-peroxidase hybridoma screening reagent (Roche) and ELISA were used to select antibodies. Anti-NKp44 (44/8) mAb was prepared by immunizing the mice with NKp44-Ig protein, after specific deletion of the IgG1 human Fc fragment. […] All hybridomas were analyzed with 51Cr cytotoxic assays with untreated or acid-treated 721.221 cells as targets, and the specificity of the anti-NKp44 hybridoma was analyzed by ELISA with different fusion proteins. […]

With PWASNASWSNKSLDDIW [gp41-C146] the NK cytotoxic activity (CD4+ T cells; single peptides of pool C 5 μg/ml, two days, E/T ratio 40/1 (FIG. 4A)) was “strongly increased”.

In the case of SWSNKS [NH2-SWSNKS-COOH, SWSNKS], the “cell surface expression of NKp44L” value [1] is reported as “any increased” and the NK cytotoxic activity (CD4+ T cells; preliminary experiment with the 6-mers peptide) is reported as “any increased”.

B1: NKp44-Ig fusion protein: NKp44-Ig NCR-Ig fusion protein (protein)
chain: QSKAQVLQSVAGQTLTVRCQYPPTGSLYEKKGWCKEASALVCIRLVTSSKPRTMAWTSRFTIWDDPDAGFFTVTMTDLREEDSGHYWCRIYRPSDNSVSKSVRFYLVVSPASASTQTPWTPRDLVSSQTQTQSCVPPTAGARQAPESPSTIPVPSQPQNSTLRPGPAAPIA
modifications: left off: a dimerising Fc or GST
With B1 the “effect of NCR-Ig fusion protein on #7.1 mAb staining” value (NKp44L) was “Inhibition”.
